Measured values reported in PMC10580936.
Numbering of substitutions follows the chain as printed.

Experiments:
[1] = test system: T1, His-FepR wt (Listeria monocytogenes EGD-e), ORF:2866136e; test: EMSA; conditions: […] (25 mM Tris, pH 5.5), 0.15 mM BSA, 2.5 mM EDTA, 10% glycerol, 20 mM DTT, 5 min at 25 C
T1 sequence: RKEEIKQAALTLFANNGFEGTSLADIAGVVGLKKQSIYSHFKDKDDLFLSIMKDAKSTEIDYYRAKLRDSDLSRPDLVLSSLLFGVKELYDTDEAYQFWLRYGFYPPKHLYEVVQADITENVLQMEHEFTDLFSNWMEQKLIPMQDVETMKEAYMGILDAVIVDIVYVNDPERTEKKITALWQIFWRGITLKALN

[2] = test system: T2, His-FepR L24F L23F (Listeria monocytogenes EGD-e), ORF:2866136e; test: EMSA; conditions: […] (25 mM Tris, pH 5.5), 0.15 mM BSA, 2.5 mM EDTA, 10% glycerol, 20 mM DTT, 5 min at 25 C
T2 sequence: T1 sequence with L23F

Row | Sequence | binding [1] | binding [2]
1 | CATTCCACTCCTCTCACAAAAACTGACGAACGTTCGTAAGTCATTTTCTCATGAAAAAAATTCTTTGTCAACAAAAAAATCCACTCTTTTAAAAGAGTGGATTCATGGATTTATTTTTCTTCTAAAAATTCGCTAATCAATTCGTATGTC (double strand) [PfepR G-27T] | no binding | 
2 | CATTCCACTCCTCTCACAAAAACTGACGACCGTTCGTAAGTCATTTTCTCATGAAAAAAATTCTTTGTCAACAAAAAAATCCACTCTTTTAAAAGAGTGGATTCATGGATTTATTTTTCTTCTAAAAATTCGCTAATCAATTCGTATGTC (double strand) [PfepR wt] | binds | no binding
